Reference: PMC3097154, “Antiviral activity of α-helical stapled peptides designed from the HIV-1 capsid dimerization domain” (Retrovirology, 2011)
Like-named read-outs stand apart in the source and are kept apart here.

What was measured:
[1] = target: C-terminal domain (CTD) of HIV-1 capsid (CA), wild type (HIV-1 (strain NL4-3)); test: ITC; dilution of CTD (ca. 250 uM in the syringe, 10 ul injections) into buffer without peptide; 25 mM sodium phosphate pH 7.3, 30 C; dimer to monomers
[2] = target: C-terminal domain (CTD) of HIV-1 capsid (CA), wild type (HIV-1 (strain NL4-3)); test: ITC; dilution of CTD (ca. 250 uM) into buffer with 350 uM NYAD-203; 25 mM sodium phosphate pH 7.3, 30 C; apparent; dimer to monomers
[3] = target: C-terminal domain (CTD) of HIV-1 capsid (CA), wild type (HIV-1 (strain NL4-3)); test: ITC; dilution of CTD (ca. 250 uM) into buffer with 200 uM NYAD-203; 25 mM sodium phosphate pH 7.3, 30 C; apparent; dimer to monomers
[4] = target: C-terminal domain (CTD) of HIV-1 capsid (CA), wild type (HIV-1 (strain NL4-3)); test: ITC; dilution of CTD (ca. 250 uM) into buffer with 50 uM NYAD-203; 25 mM sodium phosphate pH 7.3, 30 C; apparent; dimer to monomers
[5] = target: HIV-1 capsid CTD CTD (Human immunodeficiency virus 1) (UniProt O93182); details: cited from earlier work
[6] = target: HIV-1 capsid CA (Human immunodeficiency virus 1) (UniProt O93182); details: cited from earlier work
[7] = target: C-terminal domain (CTD) of HIV-1 capsid (CA), wild type (HIV-1 (strain NL4-3)); test: NMR titration
[8] = target: C-terminal domain (CTD) of HIV-1 capsid (CA), wild type (HIV-1 (strain NL4-3)); test: ITC; Ki worked out from the rise of the apparent dimer dissociation constant of CTD with the NYAD-203 concentration, extrapolated to low (zero) peptide concentration; pH 7.3, 30 C
[9] = target: C-terminal domain (CTD) of HIV-1 capsid (CA), wild type (HIV-1 (strain NL4-3)); test: as above; remark: listed apart in the source

Chain of HIV-1 capsid CTD CTD (Human immunodeficiency virus 1) (O93182 278-363): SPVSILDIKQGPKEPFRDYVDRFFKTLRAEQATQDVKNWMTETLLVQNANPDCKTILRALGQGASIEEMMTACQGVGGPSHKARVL
Chain of CAC1 peptide (O93182 307-326): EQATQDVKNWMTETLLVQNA
Chain of HIV-1 capsid CA (O93182 133-363): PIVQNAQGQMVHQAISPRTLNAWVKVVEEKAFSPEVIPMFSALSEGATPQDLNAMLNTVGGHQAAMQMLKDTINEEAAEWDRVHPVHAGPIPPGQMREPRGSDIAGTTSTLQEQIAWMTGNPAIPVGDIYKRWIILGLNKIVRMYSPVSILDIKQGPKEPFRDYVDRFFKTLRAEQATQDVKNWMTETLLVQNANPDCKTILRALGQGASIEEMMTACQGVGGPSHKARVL

C-terminal domain (CTD) of HIV-1 capsid (CA), wild type (domain or fragment)
Kd [1]: 15.3 µM | dH of dimer dissociation [1]: 10.7 kcal/mol | apparent K diss with 350 uM NYAD-203 [2]: 40.5 µM | apparent dH of dimer dissociation with 350 uM NYAD-203 [2]: 10.9 kcal/mol | apparent K diss with 200 uM NYAD-203 [3]: 33.2 µM | apparent dH of dimer dissociation with 200 uM NYAD-203 [3]: 10.8 kcal/mol | apparent K diss with 50 uM NYAD-203 [4]: 31.2 µM | apparent dH of dimer dissociation with 50 uM NYAD-203 [4]: 9.1 kcal/mol

CAC1 peptide (from UniProt O93182)
Kd [5]: 50 µM

HIV-1 capsid CA (from UniProt O93182)
Kd [6]: 18 µM

NYAD-203, hydrocarbon-stapled dimer interface peptide, soluble analog of NYAD-201
Kd [7]: < 10 µM | Ki [8]: 45 µM | Ki [9]: 40 µM
